Experimental data as given in a protein production outcome set (Wang et al. 2014).

Test: label from the status in PepcDB records

Sequence: MDMYHTKILKAIESEDYISVRRRVLRQLVESLIYEGIITPARIEKEEQILFLIQGLDEDNKSVTYECYGRERITFGRISIDSLIVRVQDGKQEIQSVAQFLEEVFRVVNVEQTKLDSFIHELEQTIFKDTIAQYERCNKLKYTQKSYDELENHLIDGHPYHPSYKARIGFQYRDNFRYGYEFMRPIKLIWIAAHKKNATVGYENEVIYDKILKSEVGERKLEAYKERIHSMGCDPKQYLFIPVHPWQWENFIISNYAEDIQDKGIIYLGESADDYCAQQSMRTLRNVTNPKRPYVKVSLNILNTSTLRTLKPYSVASAPAISNWLSNVVSQDSYLRDESRVILLKEFSSVMYDTNKKATYGSLGCIWRESVHHYLGEQEDAVPFNGLYAKEKDGTPIIDAWLNKYGIENWLRLLIQKAIIPVIHLVVEHGIALESHGQNMILVHKEGLPVRIALKDFHEGLEFYRPFLKEMNKCPDFTKMHKTYANGKMNDFFEMDRIECLQEMVLDALFLFNVGELAFVLADKYEWKEESFWMIVVEEIENHFRKYPHLKDRFESIQLYTPTFYAEQLTKRRLYIDVESLVHEVPNPLYRARQLNIQKSVATGGNYANC
- protein production: failed

Sequence: MTVSGPGTPEPRPATPGASSVEQLRKEGNELFKCGDYGGALAAYTQALGLDATPQDQAVLHRNRAACHLKLEDYDKAETEASKAIEKDGGDVKALYRRSQALEKLGRLDQAVLDLQRCVSLEPKNKVFQEALRNIGGQIQEKVRYMSSTDAKVEQMFQILLDPEEKGTEKKQKASQNLVVLAREDAGAEKIFRSNGVQLLQRLLDMGETDLMLAALRTLVGICSEHQSRTVATLSILGTRRVVSILGVESQAVSLAACHLLQVMFDALKEGVKKGFRGKEGAIIVDPARELKVLISNLLDLLTEVGVSGQGRDNALTLLIKAVPRKSLKDPNNSLTLWVIDQGLKKILEVGGSLQDPPGELAVTANSRMSASILLSKLFDDLKCDAERENFHRLCENYIKSWFEGQGLAGKLRAIQTVSCLLQGPCDAGNRALELSGVMESVIALCASEQEEEQLVAVEALIHAAGKAKRASFITANGVSLLKDLYKCSEKDSIRIRALVGLCKLGSAGGTDFSMKQFAEGSTLKLAKQCRKWLCNDQIDAGTRRWAVEGLAYLTFDADVKEEFVEDAAALKALFQLSRLEERSVLFAVASALVNCTNSYDYEEPDPKMVELAKYAKQHVPEQHPKDKPSFVRARVKKLLAAGVVSAMVCMVKTESPVLTSSCRELLSRVFLALVEEVEDRGTVVAQGGGRALIPLALEGTDVGQTKAAQALAKLTITSNPEMTFPGERIYEVVRPLVSLLHLNCSGLQNFEALMALTNLAGISERLRQKILKEKAVPMIEGYMFEEHEMIRRAATECMCNLAMSKEVQDLFEAQGNDRLKLLVLYSGEDDELLQRAAAGGLAMLTSMRPTLCSRIPQVTTHWLEILQALLLSSNQELQHRGAVVVLNMVEASREIASTLMESEMMEILSVLAKGDHSPVTRAAAACLDKAVEYGLIQPNQDGE
- protein production: failed

Sequence: MRQRKDMPHNRLQTGGMTDEPTDIKAEAKPARTSDLRGFIRLLEERGQLRRIRQPVSLVHEITEIHRRVLADGGPALLFEQPVDHEGKVRKMPLLANLFGTRQRIEWGLGLETGGLPALGQKLTELREPRPPKSMAEAWSKLPLLRAALSMRQRNVSRAPVQEKVLTRDAVDLARLPVQWCWPGEPAPLITWPLVITRSPDDPDDINVGIYRMQVLGPDRVIMRWLAHRGGAHHHRLWQARGLDMPVTVAIGADPATILAAVMPLPDHISELGFSGLLRGAKSRIAKALTVPMPVPANAEIVLEGTVSATETAMEGPYGDHTGYYNSVEAFPVMTLSAITMRRDPIYLSTYTGRPPDEPSVLGEAMLEIFLPLVKRQFAEIVDLWMPPEACSYRVMVASIDKRYPGQAKRVMMGLWSMLPQFSYVKLIILVDPDIDVRSWTDVVWALSTRFDASRDTTIINDTPIDYLDFASPKAGLGGKMGLDATRKLPPETEREWGRVLSMTPDVVAKVDLVWRDLGLGERPLEHHHHHH
- protein production: failed

Sequence: MSDAPVCERNPFLGMWSMVTRKTASGASLGAGQAITPLEAMRCYTANPARAEGQAARKGTLSPGKLADLIVLDRDPCAVDPDEIRHTQVLATLVGGQATYRAAGAPLEHHHHHH
- protein production: failed

Sequence: MKIKATIERVPGGMMIIPLFLGAALNTFAPGTAEFFGGFTGALITGTLPILGVFIFCVGATIDFRSSGYIARKGITLLLGKIGFAALLGVIAAQFIPDDGIQSGFFAGLSVLAIVAVMNETNGGLYLALMNHMGRKEDAGAFAFISTESGPFMTMVTFGVTGLAAFPWETLAATVIPFLLGCILGNLDHDLRDLFSKVVPAIIPFFAFSLGNTLNFGMLIQSGLLGIFIGVSVVILSGSSLFLLDRFIARGDGVAGVAASSTAGAAVAVPYALAEANASFAPVAESATAIIATSVIVTSLLTPLATVWVDKKIKQKKRRTPPPKNQMTIN
- protein production: failed

Sequence: MALNTNQLFAYLNRGDIAEFKFSPLFTTLFFPNVATFSTQNIMLDTLDIEEVTMSAFCSPMVGSQVQRDKGYETSTIKPGYMKPKHEIDPTKTIMRMAGEDPAQLNDPTYRRMRLITGNMRRQINAIKARVEWLAVNAVTTGKNIIEGEGIERYEIDWKIPEKNIIEQADGKKWSEQDKETHYPIYDIELYADQAGCPANVMIMGAEVWRTLRSFKKFRELYDLSRGSESAAELACKNLGEVVSFKGYLGDLALIVYSGKYTDSDGTEKYFLEPDLLVLGNTNNKGLVAYGAIMDQEAVRTGATQNMFYPKNWIEDGDPAIEYVQTHSAPQPVPADIRKFVTVKIA
- protein production: not failed

Sequence: PAGVMIADAASGKLVLTNEQAKQILRYQFEDSLELKEYAPVTPFAAFRCDGQPYDPYEYPLPRSLLTGEVISQEEMLLRWEDNSHIFISVNSAPILDSQGQIAAAAIVFQDVTERKHLESELQQREQEFKMVAENAP
- protein production: failed

Sequence: MNTIDIAKSYITAIQTGDHATLGSIISPDVIWHQPGNHQFSGTHRGMAVVGPMLGKMMEVSNGTFAISRADDYMASGDWVAITLEFSGQANGVTLKQAGVDLLRIEDGKIVEVRLFSADQTQEDAFWGR
- protein production: not failed

Sequence: MQSFWSKLKIESSKLLPSYFASVMAIGIFSIAFFLYNYNVLSYLLSYLSNVIYFALWVITVIRWVYYPRSYLNELKDLGRSPGFLSKVIATNTIGSEYMLIFKDYSLAYAFFMFGLILWIFYQYAVLSAISFNINDRNIEYVNGIWELIPASTQSVVDLGSILSPFHTYLYTLSLILFFIGVAQYIVMTSLILGRIVLKGLKPKDASGSYWIITGAAALSALAGIDLLIYLNEVNLQSAYIGDLRTIVLTFIILLWSTGTWWIPWLIYMGIWKHVINRVPLLVYDPQFWGAVFPMGMYATSSFLLIRYVNLNIPMLIPDIFILVGSVALVYQTSLMLYNVVKKLVD
- protein production: failed

Sequence: EDDKLKSVEALRQKGNELFVQKDYKEAIDAYRDALTRLDTLILREKPGEPEWVELDRKNIPLYANMSQCYLNIGDLHEAEETSSEVLKREETNEKALFRRAKARIAAWKLDEAEEDLKLLLRNHPAAASVVAREMKIVTERRAEKKADSRVTYSKMFQP
- protein production: not failed

Sequence: MSDAMPLDQTLEQLTQDEWIDIPQGWSQGRTIYGGLVAGLLMHKALSVMNDESKNLLSTSITFVGPVNEGRVRLTVEILRQGKSVTTIEARLWQDQAVQTILIASFGQPRSSEIFVLNLPEAPDYLSPEQFSRMPFVKMMPECYQQFDLRWAEGHYPMTQQAPDFGGWCRYDIQKHSPRALNVADLLILMDIWPPGVLPMFQTIAPASSLTWHLTFVRPVAYELHDWFKYQVVTQHAAFGYATEYAHLWDAQNRLIAISRQTVTVFA
- protein production: failed

Sequence: EQTTAADLPLTLAIAREVGNLLLTDSLLAETNRHLNQLNALLESMDDGVISWDEQGNLQFINAQAARVLRLDATASQGRAITELLTLPAVLQQAIKLAHPLKHVEATFESQHQFIDAVITLKPIIETQGTSFILLLHP
- protein production: failed

Sequence: MKVLFIHPFGSNWLGTGTDITTIFNLMPPLGLLSIAAFLEARGIGTEVIDCYATPMPAETLVAEVIRRRPDVVGFSCTTSSFLEGYSIAERIKEKAPGITTVFGGAHACSVGVGLLDTFPAIDYLVIGEGEQTFFELVTNLDHGGSGIPGVGYRENGKGVISALREHIANLDDLPFPAYHRLPQFPKRYILPLFSYPKAPNTSIISSRGCPYQCSYCDRSVFSRGFRFNSPEYIVEHLKMLNRDYGIRHVFFYDDLFTTDRARVARFCELKERERLPVTYNCIARLEHVDAELLRLLKRSGCWQVNFGIESGDPEVIKKHRKFYGLDEVQRKLQLVRDTGMRVKGLFMVGLPGETEESIRRTIDYALALPLDEINVTKFTPFPGAPLYATIREQGEFDENWPLMNCLNFVFVPHGMTREQLEGLYNEFISRFYRRSRIHWGYTKMLWKSPHSVATFLRHLPEILAFELKQKW
- protein production: failed

Sequence: MSLSAMPAALSFAGLAGWAEEDHLAALNAFRAGCGVSKDPAAARVCGLAKATKDLDVSGAKAFIEANFRVEAVDGGGDGLLTAYFAPQYEARMSRNAEFSAPLRGLPADLVVLDLGPFEPALVGKKITGHVEGSTFVPYPDRAEIEATPSDKPLAWMRPEELFFLQIQGSGVLVLPDGRRVRAVFAGTNGKPFVGIAIAMRDKGLLPDNNTSADAIRTWLAEHRGPEADAIMRLNPRYVFFRTVPDDGKEPAGAAGVALPPGRAIAVDPGYHAYGGFYWLDAAAPKLVGAFPVYRRAVTALDTGGAIKGEVRADLYMGSGAVAGVEAGRVRHTLRLYRLTPNPEGHHHHHH
- protein production: not failed

Sequence: MNKQSAAVLMVMGSALSLQFGAAIGTQLFPLNGPWAVTSLRLFIAGLIMCLVIRPRLRSWTKKQWIAVLLLGLSLGGMNSLFYASIELIPLGTAVTIEFLGPLIFSAVLARTLKNGLCVALAFLGMALLGIDSLSGETLDPLGVIFAAVAGIFWVCYILASKKIGQLIPGTSGLAVALIIGAVAVFPLGATHMGPIFQTPTLLILALGTALLGSLIPYSLELSALRRLPAPIFSILLSLEPAFAAAVGWILLDQTPTALKWAAIILVIAASIGVTWEPKKMLVDAPLHSKCNAKRRVHTPS
- protein production: failed

Sequence: AKTWVLTNAEEGIDKGNWQINSDQLKVKDHAFSIEQKVLHGGKQEGSKILTIHSKDGLTITLSPTRGMNLLRIEGFGSRMGWDSPVKEVVNPAFINLESRNGLGWLEGFNEMMVRCGYEWTGHPVTADGQIYTLHGKAGNTPASLVEVEVADSAPYEIRIRGLVKESTFKKADLQTLTELRYVPGSNSFSLHDVLTNHADYPHDYQIIYHSNFGTPILEEGARFLAPISSISPFNDYAKSGLKTWQTYQGPTKDFDEMVFNIQPLADENHQTLAAVVNKAGDKGASIQFDTRQLPVLTLWKNTDTVKQGYVTGIEPGTSYAYPVTIERKQKRVKQLQPGASAQFDLTYTLLHDSAQVAAVEQKIAKIQGDNKVAENETPIAKE
- protein production: not failed

Sequence: MKRALEFLKECGVFYLATNEGDQPRVRPFGAVFEYEGKLYIVSNNTKKCFKQMIQNPKVEISGMNKKGQWIRLTGEVANDDRREVKELALEAVPSLKNMYSVDDGIFAVLYFTKGEGTICSFKGENETFSL
- protein production: not failed

Sequence: MPFIYRRRVQFYETDAQGIVHHSNYFRYFEEARGEFLRSKGFPYSKMRDMGLEVVLLNAYCEYKKPLFYDDVFEVHLNLEELSRFTFTFSYIVFKEDIAVAKANTKHCMVKNGKIVSIPKEVLEVLKD
- protein production: not failed

Sequence: MSELDVEAVDDINAPAGIDAAEYVLYGGKGGVGKTTCAAATALASARDDTATLVVSTDPAHSLSDTLDADIPATPTRIREDIPLYAAEIDPEAAVGEGPLGVEEDALGGVGELLGGDGMFGGGAGGAAGAGQAEDPIGGEEGLLGGSMPGADEAAALRLLLDYVDDDRFDRVVIDTAPTGHTLRLLELPETMDSMVGKILQLRERFSGMMDNLTGMFGDDQDVDAEAGIEDLQELSDRIEHLRGILQDPQRTDFRIVMVPEELSVVESERLLAQLGEFNIPVSTVVVNRVMQDPSEVLGEDVDIAGPNHADCEFCARRWQVQQDALARSQDMFRGHDVRRVPLFAEEVRGERLLSVVAACLD
- protein production: failed
